Data reported in patent publication US20240309087A1 (SHANGHAI JUNSHI BIOSCIENCES, published 2024).

Assays:
[1] = biological target: T1, recombinant cynomolgus monkey CD112R antigen (cynomolgus monkey, UniProt A0A2K5WVV8 1-322); assay: ELISA on coated recombinant cynomolgus monkey CD112R, OD 450 nm, ambiguous fit; unit from the axis
T1 construct: bought
T1 sequence: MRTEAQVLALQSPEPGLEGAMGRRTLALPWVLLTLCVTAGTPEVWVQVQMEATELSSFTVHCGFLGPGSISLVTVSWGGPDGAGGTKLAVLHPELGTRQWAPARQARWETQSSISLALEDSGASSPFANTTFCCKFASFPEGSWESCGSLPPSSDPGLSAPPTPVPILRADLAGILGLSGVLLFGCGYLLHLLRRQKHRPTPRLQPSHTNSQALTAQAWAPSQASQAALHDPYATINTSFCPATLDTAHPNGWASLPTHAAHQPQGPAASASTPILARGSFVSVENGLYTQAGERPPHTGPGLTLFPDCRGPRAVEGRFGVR
Method: A plate was coated with a recombinant cynomolgus monkey CD112R antigen (Acrobiosystems, Cat No. PVG-C5259) at a fixed concentration, and the chimeric anti-CD112R antibodies diluted in a gradient (initial concentration: 1 μg/mL, 2.5-fold gradient dilution, 12 concentration gradients in total) were added to bind to the antigen. Horseradish peroxidase (HRP)-conjugated mouse anti-human IgG4 Fc (Southern Biotech, 9200-05) was subjected to a 5000-fold dilution and used as a detection antibody for detection. The color development was performed with 0.1 mg/mL TMB, and finally stopped with 2 M hydrochloric acid. […] EC₅₀ was obtained by fitting with a four-parameter logistic regression (4PL) model.

[2] = biological target: T2, human CD112R on CHO-CD112R cells (human, UniProt Q6DKI7 41-326); assay: FACS on CHO-CD112R cells
T2 construct: whole, on cells; also called hCD112R; PVRIG
T2 sequence (looked up): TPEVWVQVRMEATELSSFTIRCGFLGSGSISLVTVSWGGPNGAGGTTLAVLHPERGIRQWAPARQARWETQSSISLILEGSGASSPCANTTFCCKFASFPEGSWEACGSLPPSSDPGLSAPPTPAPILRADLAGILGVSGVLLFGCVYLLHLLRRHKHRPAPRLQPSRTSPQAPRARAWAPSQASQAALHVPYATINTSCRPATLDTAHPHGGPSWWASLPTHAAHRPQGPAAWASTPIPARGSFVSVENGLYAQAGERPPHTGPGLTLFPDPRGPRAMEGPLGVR
Method: (§1) CHO-CD112R cells (constructed in-house by Junshi, the amino acid sequence of CD112R in the construction of stable cell lines overexpressing CD112R comprises amino acids at positions Met1-Arg326 under NCBI accession No. Q6DKI7) overexpressing human CD112R were incubated with each of the chimeric anti-CD112R antibodies at different concentrations (initial concentration: 50 μg/mL, 5-fold dilution, 12 concentration gradients in total) at 4° C. for 30 min, and then washed and incubated with a fluorescence-labeled secondary antibody at 4° C. for 30 min in the dark. Finally, the cells were collected by using a flow cytometer (BD Canto II), and the fluorescent antibodies bound to the cell surface were detected. Raw data were analyzed by using FlowJo to obtain MFI values, the antibody dose-dependent binding curves were fitted by using GraphPad (FIG. 3, a and b) and EC₅₀ was calculated (Table 3). The positive control and the negative control were Ref (anti-CD112R antibody, University of Colorado, obtained by expression and purification according to the sequences in US20170240613) and anti-KLH hu-IgG4 antibody, respectively.

[3] = biological target: T2, human CD112R on CHO-CD112R cells; assay: FACS on CHO-CD112R cells; EC50 Ref/EC50 antibody
Method: as §1

[4] = biological target: T1, recombinant cynomolgus monkey CD112R …; assay: ELISA, coated cynomolgus monkey CD112R
Method: (§2) Plates were coated with a recombinant cynomolgus monkey CD112R antigen (purchased from Acrobiosystems, Cat No. PVG-C5259) and a mouse CD112R antigen (purchased from Acrobiosystems, Cat No. PVG-M5257) at fixed concentrations, respectively, and the humanized anti-CD112R antibodies diluted in a gradient (initial concentration: 1 μg/mL, 2.5-fold gradient dilution, 12 concentration gradients in total) were added to bind to the antigens, HRP-conjugated mouse anti-human IgG4 Fc (Southern Biotech. 9200-05) was subjected to a 5000-fold dilution and used as detection antibody for detection. The color development was performed with 0.1 mg/mL TMB, and finally stopped with 2 M hydrochloric acid. The plates were read at 420 nm/620 nm. EC₅₀ was obtained by fitting with a four-parameter logistic regression (4PL) model.

[5] = biological target: T3, human CD112R on Jurkat CD112R effector cells (human, UniProt Q6DKI7 1-326); assay: cell-based or functional assay
T3 sequence (looked up): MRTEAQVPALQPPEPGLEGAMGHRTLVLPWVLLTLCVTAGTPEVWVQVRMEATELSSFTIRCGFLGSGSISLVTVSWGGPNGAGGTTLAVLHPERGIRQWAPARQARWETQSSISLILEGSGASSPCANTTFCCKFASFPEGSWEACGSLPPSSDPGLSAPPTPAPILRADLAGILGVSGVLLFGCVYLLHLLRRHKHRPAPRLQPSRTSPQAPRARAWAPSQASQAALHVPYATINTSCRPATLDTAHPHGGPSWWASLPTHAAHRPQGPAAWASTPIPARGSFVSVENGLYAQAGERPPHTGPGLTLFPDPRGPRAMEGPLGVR

[6] = biological target: T4, hCD112R mFC recombinant protein (human; murine, UniProt Q6DKI7 41-160); assay: FACS competition, hCD112R mFc on CHO CD112 cells
T4 construct: range 41-160; expressed in 293E cells; also called hCD112R ECD mFC; hCD112R-ECD-mFC; not shown: murine IgG2a Fc domain (MX2-mFc vector)
T4 sequence (looked up): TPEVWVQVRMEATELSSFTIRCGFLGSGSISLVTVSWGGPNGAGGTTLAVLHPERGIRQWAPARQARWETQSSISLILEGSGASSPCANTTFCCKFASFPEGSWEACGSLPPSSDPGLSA
Summary of the method: (§3)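 CHO cells overexpressing human CD112 were co-incubated 30 min at 4 °C with hCD112R mFc (5 μg/mL) and humanized anti-CD112R antibodies (from 100 μg/mL, 3-fold, 10 points). Bound fusion protein detected with anti-mouse IgG Fc secondary by flow cytometry; IC50 from four-parameter fit of MFI. COM701 served as positive control, anti-KLH hu-IgG4 as negative.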

mouse CD112R antigen [7] = biological target: T5, mouse CD112R antigen (mouse); assay: ELISA on coated mouse CD112R, OD 450 nm, ambiguous fit of a nearly flat curve; unit from the axis
T5 construct: bought
Method: as §2, with “The plates were read at 420 nm/620 nm.” left out

[8] = biological target: T4, hCD112R mFC recombinant protein; assay: ELISA, coated hCD112R-ECD-mFC; EC50 COM701/EC50 antibody
Summary of the method: (§4)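 Plates coated with hCD112R-ECD-mFC at 1.5 μg/mL; humanized antibodies titrated from 1 μg/mL, 2.5-fold, 12 points. Bound antibody detected with HRP anti-human IgG Fc and TMB, read at 420/620 nm; EC50 from 4PL fit, COM701 and anti-KLH hu-IgG4 as controls.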

[9] = biological target: T4, hCD112R mFC recombinant protein; assay: ELISA, coated hCD112R-ECD-mFC
Summary of the method: as §4

[10] = biological target: T4, hCD112R mFC recombinant protein; assay: FACS competition, hCD112R mFc on CHO CD112 cells; IC50 COM701/IC50 antibody
Summary of the method: as §3

mouse CD112R antigen [11] = biological target: T5, mouse CD112R antigen; assay: ELISA on coated mouse CD112R, OD 450 nm, fit of a nearly flat curve; unit from the axis
Method: as §2, with “The plates were read at 420 nm/620 nm.” left out

[12] = biological target: T1, recombinant cynomolgus monkey CD112R …; assay: ELISA on coated recombinant cynomolgus monkey CD112R, OD 450 nm, 4PL fit; unit from the axis

B1: Chi-18 (antibody, V domains shown)
VH: EVQLQQSGAELVKPGASVKISCKASGYTFTDYNMDWVKQSHGKSLEWIGDIHPKYDRTSYNQNFKGKATLTVDKSSRTAYMELRSLTSEDTAVYFCVRINDFDEGFAMDYWGQGTSVTVSS
VL: QIVLTQSPAIMSVSPGEKVTMTCSATSSINYMHWYQQKSGTSPKRWIYDTSKLASGVPARFSGSGSGTSYSLTISNMEAEDAATYYCQQWTSNPLTFGAGTKLELK
notes: chimeric
[1]
  EC50: ~27600 µg/mL
[2]
  EC50: 0.294 µg/mL
[3]
  Relative activity (%): 572%

B2: Hu16 (antibody, human IgG4 S228P, kappa)
heavy: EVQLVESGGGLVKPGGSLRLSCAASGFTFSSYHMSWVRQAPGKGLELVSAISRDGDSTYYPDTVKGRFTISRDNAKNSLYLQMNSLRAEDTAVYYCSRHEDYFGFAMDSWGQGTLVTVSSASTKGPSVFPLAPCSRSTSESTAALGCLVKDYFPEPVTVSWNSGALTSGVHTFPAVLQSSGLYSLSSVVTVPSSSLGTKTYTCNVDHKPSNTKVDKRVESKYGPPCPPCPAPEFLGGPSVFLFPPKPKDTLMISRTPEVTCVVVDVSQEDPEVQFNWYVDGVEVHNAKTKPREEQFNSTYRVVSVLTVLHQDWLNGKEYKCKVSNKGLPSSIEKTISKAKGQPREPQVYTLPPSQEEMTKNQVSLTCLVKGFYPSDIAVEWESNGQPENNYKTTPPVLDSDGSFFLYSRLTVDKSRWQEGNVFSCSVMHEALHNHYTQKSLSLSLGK
light: DIVMTQSPDSLAVSLGERATINCKASQSVSNDVAWYQQKPGQPPKLLIYYVSHRFTGVPDRFSGSGSGTDFTLTISSLQAEDVAVYFCHQAYRSPWTFGQGTKLEIKRTVAAPSVFIFPPSDEQLKSGTASVVCLLNNFYPREAKVQWKVDNALQSGNSQESVTEQDSKDSTYSLSSTLTLSKADYEKHKVYACEVTHQGLSSPVTKSFNRGEC
notes: humanized; 5C10VH1 + 6A10VL2
[4]
  EC50: 0.00292 µg/mL
[5]
  EC50, CD112R/CD112 reporter: 0.0196 µg/mL
  Relative activity (%), EC50 COM701/EC50 antibody: 253%
[6]
  IC50: 2.5 µg/mL
Mouse CD112R antigen [7]
  EC50: ~683 µg/mL
[8]
  Relative activity (%): 126%
[9]
  EC50: 0.00426 µg/mL
[10]
  Relative activity (%): 143%

B3: Hu52 (antibody, human IgG4 S228P, kappa)
heavy: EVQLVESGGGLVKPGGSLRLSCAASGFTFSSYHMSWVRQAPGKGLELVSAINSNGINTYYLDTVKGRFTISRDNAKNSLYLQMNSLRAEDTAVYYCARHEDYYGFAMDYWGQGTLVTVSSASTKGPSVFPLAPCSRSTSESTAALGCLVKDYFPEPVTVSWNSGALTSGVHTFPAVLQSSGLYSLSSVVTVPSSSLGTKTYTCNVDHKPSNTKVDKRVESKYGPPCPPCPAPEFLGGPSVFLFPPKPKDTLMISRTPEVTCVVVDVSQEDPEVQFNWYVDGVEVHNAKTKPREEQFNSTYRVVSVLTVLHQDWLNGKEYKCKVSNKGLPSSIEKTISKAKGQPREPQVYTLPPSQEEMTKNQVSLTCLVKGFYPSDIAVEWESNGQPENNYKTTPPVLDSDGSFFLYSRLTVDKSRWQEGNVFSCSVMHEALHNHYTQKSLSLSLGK
light: DIVMTQSPDSLAVSLGERATINCKASQSVSNDVAWYQQKPGQPPKLLIYYVSHRFTGVPDRFSGSGSGTDFTLTISSLQAEDVAVYFCHQAYRSPWTFGQGTKLEIKRTVAAPSVFIFPPSDEQLKSGTASVVCLLNNFYPREAKVQWKVDNALQSGNSQESVTEQDSKDSTYSLSSTLTLSKADYEKHKVYACEVTHQGLSSPVTKSFNRGEC
notes: humanized; 7C2VH1 + 6A10VL2
Mouse CD112R antigen [11]
  EC50: 1870 µg/mL
[4]
  EC50: 0.00309 µg/mL
[5]
  EC50, CD112R/CD112 reporter: 0.018 µg/mL
  Relative activity (%), EC50 COM701/EC50 antibody: 415%
[6]
  IC50: 2.52 µg/mL
[8]
  Relative activity (%): 161%
[9]
  EC50: 0.00568 µg/mL
[10]
  Relative activity (%): 95.5%

B4: Hu59 (antibody, human IgG4 S228P, kappa)
heavy: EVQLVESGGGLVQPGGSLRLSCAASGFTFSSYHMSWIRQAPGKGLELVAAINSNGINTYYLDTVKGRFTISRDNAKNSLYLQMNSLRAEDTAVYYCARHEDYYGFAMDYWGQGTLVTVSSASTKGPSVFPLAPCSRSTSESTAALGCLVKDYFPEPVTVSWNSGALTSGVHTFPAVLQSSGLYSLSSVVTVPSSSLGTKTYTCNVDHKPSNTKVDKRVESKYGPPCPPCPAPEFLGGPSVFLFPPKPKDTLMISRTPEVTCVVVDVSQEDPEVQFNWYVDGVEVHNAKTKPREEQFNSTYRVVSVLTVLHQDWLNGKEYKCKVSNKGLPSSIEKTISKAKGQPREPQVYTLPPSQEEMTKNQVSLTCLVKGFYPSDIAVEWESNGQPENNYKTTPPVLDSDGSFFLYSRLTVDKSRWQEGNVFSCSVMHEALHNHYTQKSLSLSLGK
light: DIQMTQSPSSLSASVGDRVTITCKASQSVSNDVAWYQQKPGKAPKLLIYYVSNRFTGVPSRFSGSGSGTDFTLTISSLQPEDFATYFCQQAYRSPWTFGQGTKLEIKRTVAAPSVFIFPPSDEQLKSGTASVVCLLNNFYPREAKVQWKVDNALQSGNSQESVTEQDSKDSTYSLSSTLTLSKADYEKHKVYACEVTHQGLSSPVTKSFNRGEC
notes: humanized; 7C2VH2 + 7C2VL1
[4]
  EC50: 0.00262 µg/mL
[5]
  EC50, CD112R/CD112 reporter: 0.0188 µg/mL
  Relative activity (%), EC50 COM701/EC50 antibody: 312%
[6]
  IC50: 3.17 µg/mL
Mouse CD112R antigen [7]
  EC50: ~1970 µg/mL
[8]
  Relative activity (%): 169%
[9]
  EC50: 0.00496 µg/mL
[10]
  Relative activity (%): 76%

B5: COM701 (antibody, V domains shown)
VH: QVQLVQSGAEVKKPGASVKVSCKASGYTFTDYNINWVRQAPGQGLEWMGYIYPYIGGSGYAQKFQGRVTMTRDTSTSTVYMELSSLRSEDTAVYYCAREDKTARNAMDYWGQGTLVTVSS
VL: DIQMTQSPSSLSASVGDRVTITCRVSENIYSNLAWYQQKPGKAPKLLIYEATNLAEGVPSRFSGSGSGTDFTLTISSLQPEDFATYYCQHFWGTPYTFGQGTKLEIK
[12]
  EC50: 0.00428 µg/mL
Mouse CD112R antigen [7]
  EC50: ~1.06 µg/mL
